Among the data in publication PMC7885266 are stoichiometry N values, retold here.

For this experiment, the target named is 3TBP-CTPR6-foldon. In words: co-sedimentation; co-precipitation assay: 10 μM hTNKS2 ARC1–3 mixed with an equal volume of CTPR protein (fixed or increasing concentrations) in 50 mM Tris-HCl, 150 mM NaCl, 0.5 mM TCEP, pH 7.3; 1 h at room temperature, 20 000g 30 min; supernatant and pellet on SDS-PAGE, band densities give the stoichiometry in the pellet.

B1: Tankyrase-2 Ankyrin Repeat Clusters 1-3 (residues 2-485) (domain or fragment)
chain: SGRRCAGGGAACASAAAEAVEPAARELFEACRNGDVERVKRLVTPEKVNSRDTAGRKSTPLHFAAGFGRKDVVEYLLQNGANVQARDDGGLIPLHNACSFGHAEVVNLLLRHGADPNARDNWNYTPLHEAAIKGKIDVCIVLLQHGAEPTIRNTDGRTALDLADPSAKAVLTGEYKKDELLESARSGNEEKMMALLTPLNVNCHASDGRKSTPLHLAAGYNRVKIVQLLLQHGADVHAKDKGDLVPLHNACSYGHYEVTELLVKHGACVNAMDLWQFTPLHEAASKNRVEVCSLLLSYGADPTLLNCHNKSAIDLAPTPQLKERLAYEFKGHSLLQAAREADVTRIKKHLSLEMVNFKHPQTHETALHCAAASPYPKRKQICELLLRKGANINEKTKEFLTPLHVASEKAHNDVVEVVVKHEAKVNALDNLGQTSLHRAAYCGHLQTCRLLLSYGCDPNIISLQGFTALQMGNENVQQLLQEGI
B1 returned a stoichiometry N of 2.

Broadly, the stoichiometry N is the number of molecules, sites or subunits per partner or assembly.
